Measured values from CN113388031A (SHANGHAI INSTITUTE FOR ADVANCED STUDY OF ZHEJIANG UNIV, dated 2021).

Molecular target: 新冠病毒RBD蛋白 (SARS-CoV-2 spike receptor binding domain, expressed and purified) (SARS-CoV-2, UniProt P0DTC2 319-541)

B1: 单克隆抗体35B5 (monoclonal antibody 35B5) (antibody, V domains shown, not shown: large carriers)
VH: QVQLLESGGGLVQPGRSLRLSCAASGFTFDDYAMHWVRQAPGKGLEWVSGVSWNSGTIGYADSVKGRFTISRDNAKNSLYLHMRSLRAEDTALYYCAKAVEMVRGLMGLGADPEYGMDVWGQGTTVTVSS
VL: not shown
  Kd: 2.19 pM
